Source: patent publication US20030077318A1

Experiments:
[1] = target: L^d on transfected Drosophila S2 (fly) cells with QL9 peptide (mouse) (UniProt P01887); test: cell-based or functional assay
[2] = target: L^d on transfected Drosophila S2 (fly) cells with p2Ca peptide (mouse) (UniProt P01887); test: cell-based or functional assay
[3] = target: recombinant biotinylated L^d immobilized on avidin-coated sheep red blood cells (mouse) (UniProt P01897); test: flow cytofluorometry of L^d on avidin-coated SRBC
recombinant biotinylated L^d immobilized on avidin-coated sheep red blood cells (mouse), sequence (P01897 25-362): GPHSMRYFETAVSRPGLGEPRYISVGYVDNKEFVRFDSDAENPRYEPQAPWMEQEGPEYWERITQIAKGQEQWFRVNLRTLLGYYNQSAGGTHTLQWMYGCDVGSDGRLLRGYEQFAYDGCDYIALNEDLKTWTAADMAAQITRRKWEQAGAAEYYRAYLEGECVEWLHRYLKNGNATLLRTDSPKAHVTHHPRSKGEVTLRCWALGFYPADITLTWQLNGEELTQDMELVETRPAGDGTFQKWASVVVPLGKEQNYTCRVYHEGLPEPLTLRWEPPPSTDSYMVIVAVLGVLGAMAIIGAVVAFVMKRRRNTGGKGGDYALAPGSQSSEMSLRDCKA

L^d on transfected Drosophila S2 (fly) cells with p2Ca peptide (mouse), sequence (P01897 25-362, chain 1 of 2): as the sequence (P01897 25-362) above
L^d on transfected Drosophila S2 (fly) cells with p2Ca peptide (mouse), sequence (P01887 21-119, chain 2 of 2): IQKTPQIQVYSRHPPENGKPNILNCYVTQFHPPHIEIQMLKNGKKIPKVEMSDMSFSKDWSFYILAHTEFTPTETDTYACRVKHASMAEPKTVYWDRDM
L^d on transfected Drosophila S2 (fly) cells with QL9 peptide (mouse), sequence (P01897 25-362, chain 1 of 2): as the sequence (P01897 25-362) above
L^d on transfected Drosophila S2 (fly) cells with QL9 peptide (mouse), sequence (P01887 21-119, chain 2 of 2): as the sequence (P01887 21-119, chain 2 of 2) above

## 2C T-cell receptor (TCR), on CD8+ lymph node T cells of 2C TCR transgenic mice
[1]
  IL-2 Production (Day 2), ^3HTdR incorporation of CTLL; L^d + B7.1 cells combined with L^d ICAM-1 cells: 500 cpm
  IL-2 Production (Day 2), ^3HTdR incorporation of CTLL; fly cells expressing L^d: 100 cpm
  IL-2 Production (Day 2), ^3HTdR incorporation of CTLL; fly cells expressing L^d + B7.1: 400 cpm
  IL-2 Production (Day 2), ^3HTdR incorporation of CTLL; fly cells expressing L^d + B7.1 + ICAM-1: 159000 cpm
  IL-2 Production (Day 2), ^3HTdR incorporation of CTLL; fly cells expressing L^d + ICAM-1: 200 cpm
  Proliferation (Day 3), ^3HTdR incorporation; L^d + B7.1 cells combined with L^d ICAM-1 cells: 133000 cpm
  Proliferation (Day 3), ^3HTdR incorporation; fly cells expressing L^d: 200 cpm
  Proliferation (Day 3), ^3HTdR incorporation; fly cells expressing L^d + B7.1: 60900 cpm
  Proliferation (Day 3), ^3HTdR incorporation; fly cells expressing L^d + B7.1 + ICAM-1: 264000 cpm
  Proliferation (Day 3), ^3HTdR incorporation; fly cells expressing L^d + ICAM-1: 73900 cpm
[2]
  IL-2 Production (Day 2), ^3HTdR incorporation of CTLL; L^d + B7.1 cells combined with L^d ICAM-1 cells: 300 cpm
  IL-2 Production (Day 2), ^3HTdR incorporation of CTLL; fly cells expressing L^d: 200 cpm
  IL-2 Production (Day 2), ^3HTdR incorporation of CTLL; fly cells expressing L^d + B7.1: 200 cpm
  IL-2 Production (Day 2), ^3HTdR incorporation of CTLL; fly cells expressing L^d + B7.1 + ICAM-1: 64600 cpm
  IL-2 Production (Day 2), ^3HTdR incorporation of CTLL; fly cells expressing L^d + ICAM-1: 100 cpm
  Proliferation (Day 3), ^3HTdR incorporation; L^d + B7.1 cells combined with L^d ICAM-1 cells: 1500 cpm
  Proliferation (Day 3), ^3HTdR incorporation; fly cells expressing L^d: 200 cpm
  Proliferation (Day 3), ^3HTdR incorporation; fly cells expressing L^d + B7.1: 300 cpm
  Proliferation (Day 3), ^3HTdR incorporation; fly cells expressing L^d + B7.1 + ICAM-1: 142000 cpm
  Proliferation (Day 3), ^3HTdR incorporation; fly cells expressing L^d + ICAM-1: 1500 cpm

## monoclonal antibody 30.5.7 (anti-L^d)
[3]
  percent of cells labeled: 99.8%
